Laboratory results: article PMC2671562

Assays:
[1] = biological target: ARNT PAS-B (Homo sapiens) (UniProt P27540); assay: NMR; settings: cited from earlier work
[2] = biological target: Drosophila PERIOD fragment lacking helix αF, dPERΔαF[232–538] (Drosophila melanogaster) (UniProt P07663); assay: AUC; sedimentation equilibrium, interference optics, 10 °C, 25 mM HEPES pH 7.7, 100 mM NaCl, 2 mM DTE; four starting concentrations from stocks of 0.8–2 mg/ml; dimer to monomers, K D = 1/K A

Chain of ARNT PAS-B (P27540 356-470): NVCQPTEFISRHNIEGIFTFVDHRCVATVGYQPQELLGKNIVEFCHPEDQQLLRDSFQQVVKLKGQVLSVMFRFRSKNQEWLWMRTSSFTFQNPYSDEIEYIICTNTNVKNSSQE
Chain of HIF-2α PAS-B (Q99814 239-350): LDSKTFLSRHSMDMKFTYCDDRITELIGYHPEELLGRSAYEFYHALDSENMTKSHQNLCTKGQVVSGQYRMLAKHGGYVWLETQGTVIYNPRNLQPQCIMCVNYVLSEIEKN

Kd [2] [µM] | Substance | Kd [1] [µM]
 | ARNT PAS-B (from UniProt P27540) | 500
256 | Drosophila PERIOD fragment lacking helix αF, dPERΔαF[232–538] (from UniProt P07663 232-538) (domain or fragment) | 
 | HIF-2α PAS-B (from UniProt Q99814) | 30
